Molecular target: T1, full-length PfCSP on the surface of transgenic P. berghei sporozoites (Pb-PfCSP) (Plasmodium falciparum, UniProt Q7K740 19-374)
T1 construct: whole, on cells; also called Pb-PfCSP SPZ; Pb-PfCSP SPZ GFP/Luc
Experiment: flow cytometry on Pb-PfCSP sporozoites, mAb 20 µg/mL, MFI

T1 sequence (Q7K740 19-374): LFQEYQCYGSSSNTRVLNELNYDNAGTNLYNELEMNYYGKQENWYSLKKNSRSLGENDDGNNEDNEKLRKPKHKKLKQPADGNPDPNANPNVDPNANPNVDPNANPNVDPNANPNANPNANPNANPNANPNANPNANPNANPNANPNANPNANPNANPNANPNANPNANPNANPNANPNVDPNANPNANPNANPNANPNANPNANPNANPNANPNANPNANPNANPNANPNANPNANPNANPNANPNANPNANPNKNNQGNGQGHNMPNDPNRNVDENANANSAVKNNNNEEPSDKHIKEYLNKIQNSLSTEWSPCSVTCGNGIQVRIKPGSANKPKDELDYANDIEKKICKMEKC

B1: CIS43 human monoclonal antibody (antibody, V domains shown)
VH: QVQLVQSGAEVKKPGASVKVSCKASGYTFTSYAIHWVRQAPGQRLEWMGWIKAGNGNTRYSQKFQDRVTITRDTSTTTAYMELSSLRSEDTAVYYCALLTVLTPDDAFDIWGQGTMVTVSS
VL: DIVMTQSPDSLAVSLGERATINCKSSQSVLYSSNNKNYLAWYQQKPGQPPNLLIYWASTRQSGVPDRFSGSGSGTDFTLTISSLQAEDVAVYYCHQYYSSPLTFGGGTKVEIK
notes: also called CIS43 IgG
binding result: binds
